The results in this text go back to the RNAGym collection of RNA variant scans (doi:10.7554/elife.80360).

B1: CPEB3 Ribozyme (parent)
chain: GGGGGCCACAGCAGAAGCGUUCACGUCGCGGCCCCUGUCAGAUUCUGGUGAAUCUGCGAAUUCUGCUGU

Variants of B1 are the subject of the series. As to the kind of experiment: self-cleavage, relative activity (ratio to wild type); higher = more cleavage; co-transcriptional.
G47A U53C: the self-cleavage stood at 0.978. In the case of G47A U53G, the self-cleavage is 0.971.

G47A U53A: the self-cleavage turned out to be 1.02.

With G48A A52U, the self-cleavage is 0.996. For the variant G48A A52G, the self-cleavage was found to be 0.989.

For G48A A52C, the self-cleavage is 0.975. Turning to G47U C66G, the self-cleavage amounted to 0.914. As to G47U C66A, the self-cleavage is 0.933. Turning to G47U C66U, the self-cleavage was determined as 1.02. In the case of G48C A51G, the self-cleavage was determined as 0.995. On to G48C A60C, for which the self-cleavage worked out at 0.239. Turning to G48C A60U, the self-cleavage came out at 0.552. In the case of G47C U62G, the self-cleavage amounted to 0.901. Regarding G47C U62A, the self-cleavage turned out to be 1. In the case of G48A C66A, the self-cleavage was determined as 0.877. In the case of G48A C66U, the self-cleavage came to 0.99. In the case of G48A C66G, the self-cleavage amounted to 0.942. For G47A U49G, the self-cleavage is 0.994.

As to G47C G68U, the self-cleavage stood at 0.994. As for G47C G68A, the self-cleavage was 1. Take G47C G68C: the self-cleavage stood at 1.02. For the variant G47C C66G, the self-cleavage was determined as 0.91. As to G47C C66A, the self-cleavage is 0.897. The same measure for G47C C57A: 0.32; for G47C C57U: 0.344; for G47U U69G: 1.05. As for G47U U69A, the figure is 1.02; as for G47U U69C, 1.06. As to G47A U69G, the self-cleavage worked out at 1.05. In the case of G47A U69A, the self-cleavage was determined as 1.03. For the variant G47C G50U, the self-cleavage was found to be 0.998.

On to G47C G50C, for which the self-cleavage stood at 1.02. As for G47U U55G, the self-cleavage turned out to be 0.937. As for G47U U55A, the self-cleavage was determined as 0.961. As to G47U G65C, the self-cleavage came to 0.736. G47C U64A: the self-cleavage is 0.979. The same measure for G47C U64G: 0.938; for G47U U62C: 0.912. In the case of G47U U62G, the self-cleavage turned out to be 0.903. With G47U U61G, the self-cleavage is 0.906. With G47U U61A, the self-cleavage came to 0.984. The same measure for G47C U61G: 0.937; for G47C U61A: 0.97.

For the variant G48C C54U, the self-cleavage stood at 1.04. As to G47U G58C, the self-cleavage came to 0.963. For G47U G58A, the self-cleavage turned out to be 0.946. Regarding G47U G58U, the self-cleavage was determined as 0.994. The same measure for G47C U49G: 1; for G47C U49C: 0.981; for G47C A52C: 0.946. For G47C A52G, the self-cleavage amounted to 1. Take G47C A52U: the self-cleavage amounted to 1.05. As for G48A U62C, the self-cleavage was found to be 0.952.

On to G48A U62G, for which the self-cleavage stood at 0.868. Turning to G47U G56A, the self-cleavage amounted to 0.966. As for G47U G56C, the self-cleavage was determined as 0.885. As for G47A G68A, the figure is 1.01; as for G47A G68U, 1.01. Consider G47C G48A, for which the self-cleavage stood at 0.988. Regarding G47A U64C, the self-cleavage is 0.974. Regarding G47A U64A, the self-cleavage turned out to be 0.958.

On to G48A U67G, for which the self-cleavage is 1.06. For G48A U67C, the self-cleavage worked out at 0.958. In the case of G48A U67A, the self-cleavage amounted to 1.01. For the variant G47C A60U, the self-cleavage worked out at 0.562.

G48A C63U: the self-cleavage worked out at 0.959.

As to G48A C63A, the self-cleavage worked out at 0.932.

G48A C63G: the self-cleavage came out at 0.898. Turning to G48A G68C, the self-cleavage came out at 0.98. G48C A59C: the self-cleavage came out at 0.797. As for G48C A59G, the figure is 0.989; as for G47U G50A, 1.01; as for G47U G50C, 1. G47C: the self-cleavage came to 1. The same measure for G47U: 1; for G48A U49G: 1.01. For the variant G48A U49C, the self-cleavage was determined as 0.959. Turning to G47A U61G, the self-cleavage is 0.968. Regarding G47A U61C, the self-cleavage came out at 0.887. For the variant G48A U69C, the self-cleavage is 1.06. Consider G48A U69A, for which the self-cleavage amounted to 1.02. As for G47U A59G, the figure is 1. G47U A59C: the self-cleavage came to 0.832. As to G47C U55C, the self-cleavage came out at 0.943. For G48A G65U, the self-cleavage was 0.914. For the variant G48A G65C, the self-cleavage came to 0.81. As for G48A G65A, the figure is 0.992. As to G47C C54G, the self-cleavage is 0.959. As for G47C C54U, the figure is 0.987; as for G47A U62C, 0.933. The same measure for G47A U62A: 0.976. G48A A59G: the self-cleavage came out at 1.05.

In the case of G48A A59C, the self-cleavage is 0.83. For the variant G48A A59U, the self-cleavage was 0.817.

Regarding G48A G50C, the self-cleavage worked out at 0.974. The same measure for G48A G50A: 0.985.

Take G48A G50U: the self-cleavage stood at 0.988.

For G48C A52G, the self-cleavage worked out at 1.04.

Regarding G48C A52C, the self-cleavage amounted to 0.994. Turning to G48C A52U, the self-cleavage stood at 0.971. G47U A52U: the self-cleavage stood at 0.973.

G47A G65U: the self-cleavage worked out at 0.858. Turning to G48A, the self-cleavage worked out at 1. Consider G48C, for which the self-cleavage was determined as 0.999. As to G47C A51C, the self-cleavage came out at 1.04. Regarding G47U U64G, the self-cleavage was 0.913.

Consider G47C U67G, for which the self-cleavage is 1.06. For the variant G47C U67C, the self-cleavage amounted to 0.993. For the variant G47A U67C, the self-cleavage is 0.976. The same measure for G47A U67G: 1.06; for G48A U64C: 1. The same measure for G48A U64G: 0.902. With G48A U64A, the self-cleavage was 0.946. Take G47U A51C: the self-cleavage worked out at 0.997. Consider G47U A51U, for which the self-cleavage turned out to be 1.01.

For the variant G47C G56U, the self-cleavage turned out to be 1.02. For G47C G56C, the self-cleavage was 0.92. As for G48A C57U, the self-cleavage was found to be 0.374. As for G48A C57G, the figure is 0.31; as for G48C C63A, 0.931. As for G48C C63U, the figure is 0.981; as for G48A A51U, 0.989. As to G48A A51C, the self-cleavage worked out at 1. In the case of G47C G58U, the self-cleavage turned out to be 0.997. Regarding G47C G58A, the self-cleavage was 0.939. As for G47C G58C, the self-cleavage was found to be 0.977. Take G47C G65A: the self-cleavage worked out at 0.963. As for G47C G65C, the self-cleavage worked out at 0.726. On to G47C G65U, for which the self-cleavage turned out to be 0.908. G48A A60U: the self-cleavage is 0.516. As for G48A A60C, the self-cleavage was 0.434. G47U U67C: the self-cleavage came out at 1.

G47U U53G: the self-cleavage turned out to be 0.991. The same measure for G47U U53C: 1.02. The same measure for G47U G48C: 1.02. Turning to G48A U55G, the self-cleavage came to 0.993.

With G48A U55C, the self-cleavage was 0.949. Turning to G48A U61A, the self-cleavage turned out to be 0.957. The same measure for G48A U61C: 0.852; for G48A U61G: 0.919; for G47C A59U: 0.863. In the case of G47C A59G, the self-cleavage came to 0.958. For the variant G47C A59C, the self-cleavage is 0.837.

On to G48A G56A, for which the self-cleavage stood at 0.992.

Regarding G48A G56C, the self-cleavage worked out at 0.949.

As for G47U U49G, the self-cleavage was 0.989. In the case of G48A C54A, the self-cleavage was found to be 0.998. With G48A C54U, the self-cleavage is 1.01. As for G48A C54G, the figure is 1.02; as for G48C C57G, 0.285; as for G48C C57A, 0.309. As for G47A U55G, the self-cleavage is 0.91. In the case of G47A U55C, the self-cleavage stood at 0.966. In the case of G47U C57A, the self-cleavage stood at 0.396. Turning to G47U C57U, the self-cleavage was determined as 0.378. G47U C57G: the self-cleavage was determined as 0.311.

G47U A60U: the self-cleavage is 0.552.

As for G47U A60C, the self-cleavage was found to be 0.386.

With G47U A60G, the self-cleavage stood at 0.912. Consider G47C U69C, for which the self-cleavage was determined as 1.06. Take G48A G58A: the self-cleavage is 0.961.

Turning to G47C U53C, the self-cleavage came out at 0.992.

As to G47C U53A, the self-cleavage was 0.967. As for G47C U53G, the figure is 0.911; as for G47U C54A, 0.987; as for G47U C54U, 1.05. The same measure for G47C C63U: 1.01.
